Measurements from patent US20200308299A1, “ANTI-GPC-1 ANTIBODY” (National University Corporation Kochi University, priority 2017, published 2020).

B1: clone 01a033 (antibody)
heavy: QVQLKQSGPELVKPGASVKISCKASGYSFTGYYMHWVKQSPEKSLEWIGEINPSTGDTTYNQKFKAKATLTVDKSSSTAYMQLKSLTSEDSAVYYCAREKRDDGVFAYWGQGTLVTVSSAKTTAPSVYPLAPVCGDTTGSSVTLGCLVKGYFPEPVTLTWNSGSLSSGVHTFPAVLQSDLYTLSSSVTVTSSTWPSQSITCNVAHPASSTKVDKKIEPRGPTIKPCPPCKCPAPNLLGGPSVFIFPPKIKDVLMISLSPIVTCVVVDVSEDDPDVQISWFVNNVEVHTAQTQTHREDYNSTLRVVSALPIQHQDWMSGKEFKCKVNNKDLPAPIERTISKPKGSVRAPQVYVLPPPEEEMTKKQVTLTCMVTDFMPEDIYVEWTNNGKTELNYKNTEPVLDSDGSYFMYSKLRVEKKNWVERNSYSCSVVHEGLHNHHTTKSFSRTPGK
light: DIVMSQSPKSMSMSVGERVALSCKASENVGTYVSWYQQKPEQSPKLLIYGASNRYTGVPDRFTGSGSATDFTLTISSVQAEDLADYYCGQSYSYPLTFGAGTKLELKRADAAPTVSIFPPSSEQLTSGGASVVCFLNNFYPKDINVKWKIDGSERQNGVLNSWTDQDSKDSTYSMSSTLTLTKDEYERHNSYTCEATHKTSTSPIVKSFNRNEC
B2: GPC1 ADC (conjugate)
heavy: QVQLKQSGPELVKPGASVKISCKASGYSFTGYYMHWVKQSPEKSLEWIGEINPSTGDTTYNQKFKAKATLTVDKSSSTAYMQLKSLTSEDSAVYYCAREKRDDGVFAYWGQGTLVTVSSAKTTAPSVYPLAPVCGDTTGSSVTLGCLVKGYFPEPVTLTWNSGSLSSGVHTFPAVLQSDLYTLSSSVTVTSSTWPSQSITCNVAHPASSTKVDKKIEPRGPTIKPCPPCKCPAPNLLGGPSVFIFPPKIKDVLMISLSPIVTCVVVDVSEDDPDVQISWFVNNVEVHTAQTQTHREDYNSTLRVVSALPIQHQDWMSGKEFKCKVNNKDLPAPIERTISKPKGSVRAPQVYVLPPPEEEMTKKQVTLTCMVTDFMPEDIYVEWTNNGKTELNYKNTEPVLDSDGSYFMYSKLRVEKKNWVERNSYSCSVVHEGLHNHHTTKSFSRTPGK
light: DIVMSQSPKSMSMSVGERVALSCKASENVGTYVSWYQQKPEQSPKLLIYGASNRYTGVPDRFTGSGSATDFTLTISSVQAEDLADYYCGQSYSYPLTFGAGTKLELKRADAAPTVSIFPPSSEQLTSGGASVVCFLNNFYPKDINVKWKIDGSERQNGVLNSWTDQDSKDSTYSMSSTLTLTKDEYERHNSYTCEATHKTSTSPIVKSFNRNEC

Legend:
[1] = system: TE8, HeLa, ME180, BxPC3, and T3M4 cell strains; assay: Internalization assay on GPC1 ADC (01a033), various GPC1 positive cell strains; type: cell-based; settings: esophageal, pancreatic and cervical cancer derived cell strains, 37° C.
Procedure: Detection was performed on cells treated with GPC1 ADC (01a033) MMAF with anti-GPC1 mAb (biotin-labeled 02b006) and PE-labeled streptavidin.
TE8, HeLa, ME180, BxPC3, and T3M4 cell strains were detached and collected from a 10 cm plate using 0.02% EDTA. Cells were suspended in RPMI1640+10% FBS+100 U/ml penicillin+100 μg/ml streptomycin, and two 1.5 ml tubes were created at 1.0×10^6 cells/0.9 ml. To lower the internalization activity, the tubes were left standing on ice for 1 hour. 1 mg/ml of GPC1 ADC (01a033) MMAF was diluted to 24 μg/mL (160 nM) with ice-cooled RPMI1640+10% FBS+100 U/ml penicillin+100 μg/ml streptomycin. 100 μl of the ADC was added and suspended in the cell suspension and incubated on ice for 30 minutes to stain the antigens on the cell surface. After 30 minutes, the cell suspension was dispensed into 7 tubes each at 100 μl each. The cell suspension was separated into 4° C. incubation group and 37° C. incubation group in 14 tubes. The incubation times were 0.0 h, 1 h, 2 h, 3 h, 4 h, 6 h, 12 h, and 24 h. After reaching the incubation time, the cells were centrifuged at 1500 rpm at 4° C. for 5 minutes to remove the supernatant. The cells were washed with 100 μl of ice cooled PBS+0.2% BSA and subjected to centrifugation to wash the cells. Washing operation was performed three times in total. […]

[2] = Safety test on anti-GPC1 antibody 01a033 using mice; type: in vivo, mouse; settings: 1 mg/body ip, C57BL/6J mice, day 7
Procedure: The following items were evaluated on day 7.
Blood collection endpoints: WBC, RBC, Hb, Plt, T-Bil, ALT, ALP, Amy, BUN, Cr, Ca, P, TP, Alb, Na, K, Glob, and Glu, automatic blood cell counter: VetScan HMII, animal biochemical blood analyzer: VetScan VS2.

[3] = system: GPC1 positive esophageal cancer cell strains (TE4, TE5, TE6, TE8, TE9, TE10, TE11, TE14, TE15); assay: In vitro ADC assay, GPC1 positive esophageal cancer cell strains; type: cell-based; settings: 144 hours of culture
Procedure: Preparation of a conjugate of mouse anti-Glypican-1 mAb (01a033), mouse IgG2a (biolegend #400224) as a control, and mc-vc-PAB-MMAF was commissioned to MORADEC. An anticancer agent was conjugated to a cysteine residue via a cleavable linker. The DAR (drug-antibody ratio) was as follows. GPC1-CL-MMAF DAR=3.8, mouse IgG2a-CL-MMAF DAR=4.1.
(1) The cells were seeded on Thermo Fisher Scientific's 96-well white plate (model no.: 136101) (90 μl cell suspension). RPMI1640+10% FBS+100 U/ml penicillin+100 μg/ml streptomycin was used as the medium. The cells were seeded in 60 wells, and 100 μL of medium was added to 36 wells, and cultured in a 5% CO2 incubator at 37° C. (2) The next day, 10 μL of ADC was added to the cells (total amount: 100 μL). (3) After 144 hours of culture, a CellTiter-Glo™ Luminescence Cell Viability Assay reagent (Promega) was added and mixed at 100 μL/well. (4) Measurements were taken with a plate reader. (5) Analysis was conducted with GraphPad Prism 6.
The IC50 values were calculated from the following equation (Hossain M M, Hosono-Fukao T, Tang R, Sugaya N, van Kuppevelt T H, Jenniskens G J, Kimata K, Rosen S D, Uchimura K (2010) Direct detection of HSulf-1 and HSulf-2 activities on extracellular heparan sulphate and their inhibition by PI-88. Glycobiology 20(2): 175-186.)
IC50=10^(Log [A][B]×(50−C)/(D−C)+Log [B]) […]

pancreatic cancer PDX = assay: In vivo efficacy test on GPC1 ADC using pancreatic cancer PDX in NOG mice; parameters: species or system mouse; settings: 1, 3, 10 mg/kg iv day 0, 4, 8, 12
Text: Pancreatic cancer PDX (Patient-derived tumor xenograft) refers to residual tissue from pathological analysis of cancer tissue upon pancreatic cancer surgery from a pancreatic cancer patient. This Example used a pancreatic cancer model created by subcutaneously grafting in superimmunodeficient mice such as NOG mice. While human tumor hardly survives in SCID mice after grafting, NOG mice have more severe immunodeficiency than SCID mouse, so that human tumor is more likely to survive. For this reason, a PDX model has an environment that is closer to human tumor than a mouse model to which a cell strain is grafted. Thus, information obtained with a PDX model is useful in evaluating drug efficacy.
FIG. 24 schematically depicts the test in this Example. Specifically, pancreatic cancer PDX was subcutaneously grafted into 6 week old female NOG mice. […] The tumor volume and body weight were measured on day 0, day 4, day 8, day 12, day 16, day 20, day 24, and day 28.

Molecule | internalization activity [1] | toxicity (blood cell count, biochemical blood analysis) [2] | effect of suppressing cell growth [3] | antitumor effect (tumor volume, tumor weight day 28) (pancreatic cancer PDX)
B1 | high internalization activity | Toxicity was not found | – | –
B2 | – | – | exhibits an effect of suppressing cell growth | exhibited an antitumor effect
